Results reported in the DeepSol protein solubility set.

test: soluble on expression in E. coli; label from the status in PepcDB or PDB records

| Sequence | soluble on expression in E. coli |
| --- | --- |
| MGSDKIHHHHHHMRGDMLKRELQAYAKEIGIDEFRVTTADPFLVMKQRLMEQQEKGYASGFEEPDLERRTTPALLLEDAVSIIAIAVAYPSKLKDAPRGKEGERRGIFGRSSWGLDYHQALKQRLTLLEEKIQELSPGARSRSMVDTGELVDRAVAERAGIGFSGKNCSIISEEHGSYLYLGELITDQYLPPDESVEELCGSCNKCLDACPTDALIEPGVIDAKRCISFITQTKTLIPEHFRYALGNRLYGCDTCQQVCPYNRKKNATQHSELQPDPEQVKPLLIPLLSLSNREFKSRFGSLSGAWRGKKPIQRNAVCALVHYQDRTALDALRLMAETDQREDMRALAIWAVGRIAGQEAEDYIQKRLLTDSAEDVQVEGNRLLEEWGNGHAI | not soluble |
| MGSDKIHHHHHHMQTLKRGFAVAALLFSPLTMAQDINAQLTTWFSQRLAGFSDEVVVTLRSSPNLLPSCEQPAFSMTGSAKLWGNVNVVARCANEKRYLQVNVQATGNYVAVAAPIARGGKLTPANVTLKRGRLDQLPPRTVLDIRQIQDAVSLRDLAPGQPVQLTMIRQAWRVKAGQRVQVIANGEGFSVNAEGQAMNNAAVAQNARVRMTSGQIVSGTVDSDGNILINL | not soluble |
| MKRDGHTHTEFCPHGTHDDVEEMILKAIELDFDEYSIVEHAPLSSEFMKNTAGNQEAVTTASMSMSDLPYYFKKMNQMKKKYASDLLIHIGFEVDYLIGYEDFTRDFLNEYGPQTDDGVLSLHFLEGQGGFRSIDFTAEDYNEGIVQFYGGFEQAQLVYLAGVKQSIEADLGAFKPRRIGHISLCQKFQQFFGADGRDFTAEVIAEFEAILALVKKRGYELDFNTAGLFKPLCKETYPPKEIVTLARALEIPFVYGSDSHGVADIGRGYNTYCQK | not soluble |
| MSLGKEGLERLVYMVDRSDSLSLLQERIDSIEVVAPQVFSFTLEGTVYGEVDPRIIALAKERGKKLMPLVMNENFEKEKIKAFLANPKAQERLIGSLIKIALKEGFGGWQLDFEHLGITSKEAYTQLVRQLYARLKEHHLSLSIAVVPPRGEEPKNAYGAKVFEDWVSPYDLKALAEHSDFLTLMAYDQHTGGSTPGPIASRAWVEGIIQEALIWVPKEKLSLGIPLYSRLWHAGIKEEKMRGVAKSLTFAGAMDWLERQGAETLWLERDGVKWAMGERGGVKEYLFMEEARSLALKVELAKRYGLRGISLWRLGQEDPRIWDELEGHHHHHH | soluble |
| MNYSLKQLKVFVTVAQEKSFSRAGERIGLSQSAVSHSVKELENHTGVRLLDRTTREVVLTDAGQQLALRLERLLDELNSTLRDTGRMGQQLSGKVRVAASQTISAHLIPQCIAESHRRYPDIQFVLHDRPQQWVMESIRQGDVDFGIVIDPGPVGDLQCEAILSEPFFLLCHRDSALAVEDYVPWQALQGAKLVLQDYASGSRPLIDAALARNGIQANIVQEIGHPATLFPMVAAGIGISILPALALPLPEGSPLVVKRITPVVERQLMLVRRKNRSLSTAAEALWDVVRDQGNALMAGREGDPLYQI | soluble |
| MAHHHHHHMSRLLKHYGSCKTAFFCCDIQEKFMGRIANSANCVFVANRFAGLHTALGTAHSVYIVTEQYPKGLGATSADIRLPPDAHVFSKKRFAMLVPQVMPLVDLPEVEQVVLWGFETHVCILQTAAALLDMKKKVVIAVDGCGSQSQGDHCTAIQLMQSWSGDGCYISTSESILMQLLKDASDPVFKTIAPLMKQTHPIRI | soluble |
| MSQWHHPRSGWGRRRDFSGRSSAKKKGGNHIPERWKDYLPVGQRMPGTRFIAFKVPLQKSFEKKLAPEECFSPLDLFNKIREQNEELGLIIDLTYTQRYYKPEDLPETVPYLKIFTVGHQVPDDETIFKFKHAVNGFLKENKDNDKLIGVHCTHGLNRTGYLICIYLIDVEGVRPDDAIELFNRCRGHCLERQNYIEDLQNGPIRKNWNSSVPRSSDFEDSAHLMQPVHNKPVKQGPRYNLHQIQGHSAPRHFHTQTQSLQQSVRKFSENPHVYQRHHLPPPGPPGEDYSHRRYSWNVKPNASRAAQDRRRWYPYNYSRLSYPACWEWTQ | soluble |
| EMETYVNKLHEGSTYTAAVQYNVLEKDDDPASLTIWVPMFQSSMPADLLIKELANVNILVKQISTPKGPSLRVMINSRSAVLAQMPSKFTICANVSLDDRSKLAYDVTTPCEIKACSLTCLKSKNMLTTVKDLTMKTLNPTHDIIALCEFENIVTSKKVIIPTYLRSISVRNKDLNTLENITTTEFKNAITNAKIIPYSGLLLVITVTDNKGAFKYIKPQSQFIVDLGAYLEKESIYYVTTNWKHTATRFAIKPRED | soluble |
| MANSLRNVNDYDPFKYRPSYFDLEAPTESFALGKFVDAIEVKQMALDAFSESSMVSIATSQLPKTAYTATSFIESEYYSFPYLFNDQKYYWDYFDYKIPAADFAVLELELDLNNQQDQQIKDHFIDPAIKAYKQLGDSTGLFATKPLTEYQNDTHYLLGYPVVPTDHTQLWECKQGAERFSYGYFYSNMARLTKNLRQGDPNAGSKTHIEYSNELLDKDSMDQGIVR | not soluble |
| MAGDPMVRLNVKPTRMELNNLKERLTTAERGHKLLKDKRDELMRRFISLIRENNQLRKEVESYLIDNLKSFAVAKSLKNSQMVEELFSIPSKEIELFVEKENIMSVTVPRMHMNITSQNENSEYSYLSSNSEMDDVFATMNSLIYKLLRLAEVEKTCQLMADEIEKTRRRVNGLEYSIIPNLSETIHYIELKLEEAERANLVRIMKVKLEHHHHHH | not soluble |
| MDALAIINKYYPEDNELKHILLAHSRSVADKALWIAGKHPELNLDKQFLEEAAMLHDIGIFMTDAEGICCFGSYPYICHGYLGADLMRKEGFPRHALVCERHTGAGMSLQSIIDQQLPVPHRNMVPVSLEEQVICFADKFFSKTHLDREKSVEKALKSISRYGEDGIIRFNHWCECFL | soluble |
| MGSLVREWVGFQQFPAATQEKLIEFFGKLKQKDMNSMTVLVLGKGGVGKSSTVNSLIGEQVVRVSPFQAEGLRPVMVSRTMGGFTINIIDTPGLVEAGYVNHQALELIKGFLVNRTIDVLLYVDRLDVYAVDELDKQVVIAITQTFGKEIWCKTLLVLTHAQFSPPDELSYETFSSKRSDSLLKTIRAGSKMRKQEFEDSAIAVVYAENSGRCSKNDKDEKALPNGEAWIPNLVKAITDVATNQRKAIHVDAAALEHHHHHH | soluble |
| MAIFARETMDLIATASFPSIKKLSSGFWLDLFESTLTSGNELVLLPPTRYSYWSIMAVANPTPLKAPRRLDLVTKSLLAAPLLFHLVCQSNNPVREDVLDCWVWPFFCSGNTALMKSPKFWALLGVGSKVVLPWLCPLLGSRNAGKA | soluble |
| MVVYGADVICASCVNAPTSKDIYDWLQPLLKRKYPNISFKYTYIDITKDNDNLTDHDLQFIERIEQDELFYPLITMNDEYVADGYIQTKQITRFIDQKLVNE | soluble |
| MGHHHHHHSHTKSARVKGLSFHPKRPWILTSLHNGVIQLWDYRMCTLIDKFDEHDGPVRGIDFHKQQPLFVSGGDDYKIKVWNYKLRRCLFTLLGHLDYIRTTFFHHEYPWILSASDDQTIRVWNWQSRTCVCVLTGHNHYVMCAQFHPTEDLVVSASLDQTVRVWDISGLRKKNLSPGAVESDVRGITGVDLFGTTDAVVKHVLEGHDRGVNWAAFHPTMPLIVSGADDRQVKIWRMNESKAWEVDTCRGHYNNVSCAVFHPRQELILSNSEDKSIRVWDMSKRTG | soluble |
| MTTKRKETRESVCYREIKKKIRNGELKPGDRLIENTLSEQLGISRTPIRKAIGMLAADGYVEYNDFRGAFVRDSIINKERYFEMTEILGLFLKQAIQKIRTKKISFNKMRVVAKLVEIERDVEPSDPAVYFEYEKWFVNDLLTYMKNNYYLKISNDFFNNIQEFGDEEVIKIAQNACVKTIANIQRFIDALEAQNYDECMAIIDQVIDAHVLVAYR | not soluble |
| MGSDKIHHHHHHMDEIVKVLSQHDRILVVGHIMPDGDCVSSVLSLTLGLEKLGKEVKAAVDYKIPYVFEKFPYIDKIEENPNFDPELLVVVDASSPDRIGKFQDLLDKVPSVVIDHHSTNTNFGNWNWVDPSFAATAQMIFRINKALGVEYDSNLATLNYLGIATDTGFFRHSNADVRVFEDAYKLVKMGADAHFVAKEILENKRFEQFKLFAEVLERLQLLENGKIAYSYIDYDTYLRHNCTDEDSAGFVGELRSIRGVEVAVLFMEFPRGKIHVSMRSKDWFNVNEVAFELGGGGHPRAAGVTFEGKKIEEVIPRVINHLLKKFKEGVESESEKIPEGDVLGG | not soluble |
| MREQQPDVPPAEPANDVVAPPPLMDLGPPVNPMLPLDLPYNVVREIGIAVSSKITILLLRTPNYKLD | not soluble |
| MGDTTFLIEFDHPAAVYSPGQNVAGKLTIRNRNALNALALKICIHGDIETLWRKFENKGRYDRHGRWYRSSEHINYTSKINVLEGIAQPWSSIENANNKIPGGVNIFPFLFQLPANLPPSFEGTHGNVRYSVHVELDRPWRMNVEAKRVFSVIPVIDLNSIPKTINPMIVSSCKHSGLFSNKEVKVKISIPKSGYIPGETIQVSALIQNHTKKPIYSIKAKLEQHVHYQAQQENSHLFPEEHCHKHCEHKTAQTTMSKVEKSCHVEFCSNSQINVPLVLPNQLVPSFRTGIIEVDYCIIVDIGENKKLRCELPITVGTIPIGVFTRPIAYSITEAPPKYENFSQIVEDSQASAPPPEYENEEHF | not soluble |
| MLPRTMAADEGHVPGRFDAVIVGGGHNGLVAAAYLARAGRSVLVLERLGNTGGAAVSTRPFAGVDARLSRYSYLVSLLPRKIVRDLGLDFRVRGRTVSSYTPAERHGRPTGLLVGGGERRTREAFGRLTGSAREYESWQRFYGMTGRVARQVFPTLTEPLPSRDELRRRVDDEDAWRVLFEEPIGAAIEENFTDDLVRGVVLTDALIGTFADAHDPSLRQNRCFLYHIIGGGTGAWDVPVGGMGALTDALAAAARDAGAVLATGHEAVRIETDGRSAEVTYRDADGEGTVSARHVLVNAAPQELARLTGDSPPVPAEGAQLKVNMLLKRLPALRDTAVDPREAFAGTFHIAEGYEQLAAAHAQAAAGSLPEAPPSEIYCHSLTDPTILGPDLVEQGYQTLTLFGLHTPARLFERDNEGVREELLKSTLAQLDAHLAEPLVDCLATDAEGRPCIEAKSPLDLERDLRLPGGNIFHRDLAFPYAQEGTGRWGVETAHANVLLCGAGAVRGGGVSGVPGHNAAMAALEDVGERALGLEHHHHHH | not soluble |
| MATFVRNAWYVAALPEELSEKPLGRTILDTPLALYRQPDGVVAALLDICPHRFAPLSDGILVNGHLQCPYHGLEFDGGGQCVHNPHGNGARPASLNVRSFPVVERDALIWIWPGDPALADPGAIPDFGCRVDPAYRTVGGYGHVDCNYKLLVDNLMDLGHAQYVHRANAQTDAFDRLEREVIVGDGEIQALMKIPGGTPSVLMAKFLRGANTPVDAWNDIRWNKVSAMLNFIAVAPEGTPKEQSIHSRGTHILTPETEASCHYFFGSSRNFGIDDPEMDGVLRSWQAQALVKEDKVVVEAIERRRAYVEANGIRPAMLSCDEAAVRVSREIEKLEQLEAARLEHHHHHH | soluble |
| MEKKTIVLGVIGSDCHAVGNKILDHSFTNAGFNVVNIGVLSSQEDFINAAIETKADLICVSSLYGQGEIDCKGLREKCDEAGLKGIKLFVGGNIVVGKQNWPDVEQRFKAMGFDRVYPPGTSPETTIADMKEVLGVE | soluble |
| MIILEKEQKEPNRLIKEKSPYLLQHAYNPVDWYPWGEEAFEKARKENKPVFLSIGYSTCHWCHMMAHESFEDEEVAGLMNEAFVSIKVDREERPDIDNIYMTVCQIILGRGGWPLNIIMTPGKKPFFAGTYIPKNTRFNQIGMLELVPRIKEIWEQQHEEVLDSAEKI | not soluble |
